Experimental data published in patent US20230287145A1 (Hoffmann-La Roche, published 2023).

Legend:
[1] = target: T1, Human CD3ε stalk-Fc(knob)-Avi/CD3δ stalk-Fc(hole) (human); assay: SPR, biotinylated human CD3ε/δ on SA chip, TCB at 2 µg/ml; response normalised to anti-huIgG capture and referenced to the unstressed sample; after 2 weeks at pH 6.0/40 °C
T1 construct: Heterodimeric Fc fusion; also called human CD3ε/δ; Human CD3 epsilon stalk-Fc(knob)-Avi
Protocol: (§1) In order to assess the effect of the deamidation site removal and its effect on the stability of the antibodies, the optimized anti-CD3 antibodies (in TCB format) were incubated for 14 days at 37° C., pH 7.4 and at 40° C., pH 6 and further analyzed by SPR for their binding capability to human CD3ε/δ. Samples stored at −80° C. pH 6 were used as reference. The reference samples and the samples stressed at 40° C. were in 20 mM His, 140 mM NaCl, pH 6.0, and the samples stressed at 37° C. in PBS, pH 7.4, all at a concentration of 1.0 mg/ml. After the stress period (14 days) samples in PBS were dialyzed back to 20 mM His, 140 mM NaCl, pH 6.0 for further analysis.
(§2) All SPR experiments were performed on a Biacore T200 instrument (GE Healthcare) at 25° C. with HBS-P+ (10 mM HEPES, 150 mM NaCl pH 7.4, 0.05% Surfactant P20) as running and dilution buffer. Biotinylated human CD3ε/δ (see Example 3, SEQ ID NOs 41 and 42) as well as biotinylated anti-huIgG (Capture Select, Thermo Scientific, #7103262100) were immobilized on a Series S Sensor Chip SA (GE Healthcare, #29104992), resulting in surface densities of at least 1000 resonance units (RU). Anti-CD3 antibodies with a concentration of 2 μg/ml were injected for 30 s at a flow rate of 5 μl/min, and dissociation was monitored for 120 s. The surface was regenerated by injecting 10 mM glycine pH 1.5 for 60 s. Bulk refractive index differences were corrected by subtracting blank injections and by subtracting the response obtained from a blank control flow cell. For evaluation, the binding response 5 seconds after injection end was taken. To normalize the binding signal, the CD3 binding was divided by the anti-huIgG response (the signal (RU) obtained upon capture of the CD3 antibody on the immobilized anti-huIgG antibody). The relative binding activity was calculated by referencing each temperature stressed sample to the corresponding, non-stressed sample.

[2] = target: T1, Human CD3ε stalk-Fc(knob)-Avi/CD3δ …; assay: SPR, biotinylated human CD3ε/δ on SA chip, TCB at 2 µg/ml; response normalised to anti-huIgG capture and referenced to the unstressed sample; after 2 weeks at pH 7.4/37 °C
Protocol: as §1, §2

[3] = target: T2, biotinylated anti-human CD3 IgG (anti-CD3 P035.093) (biotinylated (site not stated)); assay: SPR; biotinylated anti-CD3 P035.093 IgG on CAP chip, anti-idiotypic IgG at 1 µg/ml; response normalised to anti-human IgG surface and to the unstressed sample; after 14 d at 40 °C pH 6.0
T2 construct: IgG format of this reagent is not described further; immobilised on a CAP chip; also called CD3 IgG (P035.093)
Protocol: (§3) Flow cell 1 was kept as mock surface. […] Dissociation was monitored for 30 s, the flow rate was set to 5 μl/min. The CAP chip was regenerated by injecting a mix of NaOH and Guadinium-hydrochloride for 120 s, provided in the biotin capture kit. Bulk refractive index differences were corrected by subtracting the response obtained from flow cell 1 (mock surface).

[4] = target: T2, biotinylated anti-human CD3 IgG …; assay: SPR; biotinylated anti-CD3 P035.093 IgG on CAP chip, anti-idiotypic IgG at 1 µg/ml; response normalised to anti-human IgG surface and to the unstressed sample; after 14 d at 37 °C pH 7.4
Protocol: Therefore, they were analyzed for thermal stability and remaining target binding after 14 d stress conditions (40° C. at pH6.0 or 37° C. at pH7.4).
as §3

T2 sequence (VH, as listed by the source, chain 1 of 2): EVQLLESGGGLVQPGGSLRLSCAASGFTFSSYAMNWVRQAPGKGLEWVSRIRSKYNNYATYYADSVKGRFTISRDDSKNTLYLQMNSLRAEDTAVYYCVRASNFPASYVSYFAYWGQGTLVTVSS
T2 sequence (VL, as listed by the source, chain 2 of 2): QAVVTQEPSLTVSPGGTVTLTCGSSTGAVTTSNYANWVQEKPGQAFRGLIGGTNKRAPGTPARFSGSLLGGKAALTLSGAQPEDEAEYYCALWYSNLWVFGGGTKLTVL

B1: TYRP1 TCB containing the parental CD3 binder CD3orig (bispecific antibody, human IgG1, kappa, L234A L235A)
heavy 1: not shown
heavy 2: QVQLVQSGAEVKKPGASVKVSCKASGFNIKDYFLHWVRQAPGQGLEWMGWINPDNGNTVYAQKFQGRVTMTADTSTSTVYMELSSLRSEDTAVYYCTRRDYTYEKAALDYWGQGTLVTVSSASTKGPSVFPLAPSSKSTSGGTAALGCLVEDYFPEPVTVSWNSGALTSGVHTFPAVLQSSGLYSLSSVVTVPSSSLGTQTYICNVNHKPSNTKVDEKVEPKSCDKTHTCPPCPAPEAAGGPSVFLFPPKPKDTLMISRTPEVTCVVVDVSHEDPEVKFNWYVDGVEVHNAKTKPREEQYNSTYRVVSVLTVLHQDWLNGKEYKCKVSNKALGAPIEKTISKAKGQPREPQVCTLPPSRDELTKNQVSLSCAVKGFYPSDIAVEWESNGQPENNYKTTPPVLDSDGSFFLVSKLTVDKSRWQQGNVFSCSVMHEALHNHYTQKSLSLSP
light 1: DIQMTQSPSSLSASVGDRVTITCRASGNIYNYLAWYQQKPGKVPKLLIYDAKTLADGVPSRFSGSGSGTDFTLTISSLQPEDVATYYCQHFWSLPFTFGQGTKLEIKRTVAAPSVFIFPPSDRKLKSGTASVVCLLNNFYPREAKVQWKVDNALQSGNSQESVTEQDSKDSTYSLSSTLTLSKADYEKHKVYACEVTHQGLSSPVTKSFNRGEC
light 2: EVQLLESGGGLVQPGGSLRLSCAASGFTFSTYAMNWVRQAPGKGLEWVSRIRSKYNNYATYYADSVKGRFTISRDDSKNTLYLQMNSLRAEDTAVYYCVRHGNFGNSYVSWFAYWGQGTLVTVSSASVAAPSVFIFPPSDEQLKSGTASVVCLLNNFYPREAKVQWKVDNALQSGNSQESVTEQDSKDSTYSLSSTLTLSKADYEKHKVYACEVTHQGLSSPVTKSFNRGEC
notes: also called CD3orig in TCB format
Question: How did the “binding activity [%]” value [1] turn out when B1 was run?
Answer: 95%

Question: And the “binding activity [%]” value [2]?
Answer: 65%

B2: TYRP1 TCB containing optimized anti-CD3 antibody clone P004.042 (bispecific antibody, human IgG1, kappa, L234A L235A)
heavy 1: not shown
heavy 2: QVQLVQSGAEVKKPGASVKVSCKASGFNIKDYFLHWVRQAPGQGLEWMGWINPDNGNTVYAQKFQGRVTMTADTSTSTVYMELSSLRSEDTAVYYCTRRDYTYEKAALDYWGQGTLVTVSSASTKGPSVFPLAPSSKSTSGGTAALGCLVEDYFPEPVTVSWNSGALTSGVHTFPAVLQSSGLYSLSSVVTVPSSSLGTQTYICNVNHKPSNTKVDEKVEPKSCDKTHTCPPCPAPEAAGGPSVFLFPPKPKDTLMISRTPEVTCVVVDVSHEDPEVKFNWYVDGVEVHNAKTKPREEQYNSTYRVVSVLTVLHQDWLNGKEYKCKVSNKALGAPIEKTISKAKGQPREPQVCTLPPSRDELTKNQVSLSCAVKGFYPSDIAVEWESNGQPENNYKTTPPVLDSDGSFFLVSKLTVDKSRWQQGNVFSCSVMHEALHNHYTQKSLSLSP
light 1: DIQMTQSPSSLSASVGDRVTITCRASGNIYNYLAWYQQKPGKVPKLLIYDAKTLADGVPSRFSGSGSGTDFTLTISSLQPEDVATYYCQHFWSLPFTFGQGTKLEIKRTVAAPSVFIFPPSDRKLKSGTASVVCLLNNFYPREAKVQWKVDNALQSGNSQESVTEQDSKDSTYSLSSTLTLSKADYEKHKVYACEVTHQGLSSPVTKSFNRGEC
light 2: EVQLLESGGGLVQPGGSLRLSCAASGFQFDNYAMNWVRQAPGKGLEWVSRIRTKYNEYATYYADSVKGRFTISRDDSKNTLYLQMNSLRAEDTAVYYCVRASNFPQSYVSYFGYWGQGTLVTVSSASVAAPSVFIFPPSDEQLKSGTASVVCLLNNFYPREAKVQWKVDNALQSGNSQESVTEQDSKDSTYSLSSTLTLSKADYEKHKVYACEVTHQGLSSPVTKSFNRGEC
notes: 2+1 IgG CrossFab, inverted, with charge modifications; knob-into-hole, P329G L234A L235A; also called CD3opt (P004.042)
Question: Which “binding activity [%]” value [1] does the source give for B2 here?
Answer: 98%

Question: And the “binding activity [%]” value [2]?
Answer: 98%

B3: TYRP1 TCB containing optimized anti-CD3 antibody clone P021.045 (bispecific antibody, human IgG1, kappa, L234A L235A)
heavy 1: not shown
heavy 2: QVQLVQSGAEVKKPGASVKVSCKASGFNIKDYFLHWVRQAPGQGLEWMGWINPDNGNTVYAQKFQGRVTMTADTSTSTVYMELSSLRSEDTAVYYCTRRDYTYEKAALDYWGQGTLVTVSSASTKGPSVFPLAPSSKSTSGGTAALGCLVEDYFPEPVTVSWNSGALTSGVHTFPAVLQSSGLYSLSSVVTVPSSSLGTQTYICNVNHKPSNTKVDEKVEPKSCDKTHTCPPCPAPEAAGGPSVFLFPPKPKDTLMISRTPEVTCVVVDVSHEDPEVKFNWYVDGVEVHNAKTKPREEQYNSTYRVVSVLTVLHQDWLNGKEYKCKVSNKALGAPIEKTISKAKGQPREPQVCTLPPSRDELTKNQVSLSCAVKGFYPSDIAVEWESNGQPENNYKTTPPVLDSDGSFFLVSKLTVDKSRWQQGNVFSCSVMHEALHNHYTQKSLSLSP
light 1: DIQMTQSPSSLSASVGDRVTITCRASGNIYNYLAWYQQKPGKVPKLLIYDAKTLADGVPSRFSGSGSGTDFTLTISSLQPEDVATYYCQHFWSLPFTFGQGTKLEIKRTVAAPSVFIFPPSDRKLKSGTASVVCLLNNFYPREAKVQWKVDNALQSGNSQESVTEQDSKDSTYSLSSTLTLSKADYEKHKVYACEVTHQGLSSPVTKSFNRGEC
light 2: EVQLLESGGGLVQPGGSLRLSCAASGFTFSSYAMNWVRQAPGKGLEWVSRIRSKYNNYATYYADSVKGRFTISRDDSKNTLYLQMNSLRAEDTAVYYCVRASNFPSSYVSYFAYWGQGTLVTVSSASVAAPSVFIFPPSDEQLKSGTASVVCLLNNFYPREAKVQWKVDNALQSGNSQESVTEQDSKDSTYSLSSTLTLSKADYEKHKVYACEVTHQGLSSPVTKSFNRGEC
notes: 2+1 IgG CrossFab, inverted, with charge modifications; knob-into-hole, P329G L234A L235A; also called CD3opt (P021.045)
Question: Which “binding activity [%]” value [1] does the source give for B3 here?
Answer: 99%

Question: And the “binding activity [%]” value [2]?
Answer: 95%

B4: TYRP1 TCB containing optimized anti-CD3 antibody clone P035.064 (bispecific antibody, human IgG1, kappa, L234A L235A)
heavy 1: not shown
heavy 2: QVQLVQSGAEVKKPGASVKVSCKASGFNIKDYFLHWVRQAPGQGLEWMGWINPDNGNTVYAQKFQGRVTMTADTSTSTVYMELSSLRSEDTAVYYCTRRDYTYEKAALDYWGQGTLVTVSSASTKGPSVFPLAPSSKSTSGGTAALGCLVEDYFPEPVTVSWNSGALTSGVHTFPAVLQSSGLYSLSSVVTVPSSSLGTQTYICNVNHKPSNTKVDEKVEPKSCDKTHTCPPCPAPEAAGGPSVFLFPPKPKDTLMISRTPEVTCVVVDVSHEDPEVKFNWYVDGVEVHNAKTKPREEQYNSTYRVVSVLTVLHQDWLNGKEYKCKVSNKALGAPIEKTISKAKGQPREPQVCTLPPSRDELTKNQVSLSCAVKGFYPSDIAVEWESNGQPENNYKTTPPVLDSDGSFFLVSKLTVDKSRWQQGNVFSCSVMHEALHNHYTQKSLSLSP
light 1: DIQMTQSPSSLSASVGDRVTITCRASGNIYNYLAWYQQKPGKVPKLLIYDAKTLADGVPSRFSGSGSGTDFTLTISSLQPEDVATYYCQHFWSLPFTFGQGTKLEIKRTVAAPSVFIFPPSDRKLKSGTASVVCLLNNFYPREAKVQWKVDNALQSGNSQESVTEQDSKDSTYSLSSTLTLSKADYEKHKVYACEVTHQGLSSPVTKSFNRGEC
light 2: EVQLLESGGGLVQPGGSLRLSCAASGFDFDNYAMNWVRQAPGKGLEWVSRIRSKHNGYATYYADSVKGRFTISRDDSKNTLYLQMNSLRAEDTAVYYCVRASNFPSSYVSYFGYWGQGTLVTVSSASVAAPSVFIFPPSDEQLKSGTASVVCLLNNFYPREAKVQWKVDNALQSGNSQESVTEQDSKDSTYSLSSTLTLSKADYEKHKVYACEVTHQGLSSPVTKSFNRGEC
notes: 2+1 IgG CrossFab, inverted, with charge modifications; knob-into-hole, P329G L234A L235A; also called CD3opt (P035.064)
Question: For B4, which “binding activity [%]” value [1] is on record?
Answer: 97%

Question: And the “binding activity [%]” value [2]?
Answer: 96%

B5: Humanized variant H3L3 of anti-idiotypic antibody 4.24.72 (IgG) (antibody, V domains shown)
VH: QVQLVQSGSELKKPGASVKVSCKASGYTVTDYSMNWVRQAPGQGLEWMGWINTETGEPRYTQGFKGRFVFSLDTSVSTAYLQISSLKAEDTAVYYCAREGDYDVFDYWGQGTLVTVSS
VL: DIVMTQSPDSLAVSLGERATINCRASKSVSTSSYSYMHWYQQKPGQPPKLLIKYVSYLESGVPDRFSGSGSGTDFTLTISSLQAEDVAVYYCQQSREFPYTFGQGTKLEIK
notes: Produced and purified as IgG; also called Mask humanization variant H3L3
Question: For B5, which “Rel. active concentration [%]” value [3] is on record?
Answer: 97%

Question: What about the “Rel. active concentration [%]” value [4] of the same binder?
Answer: 87%

B6: Humanized variant H7L5 of anti-idiotypic antibody 4.24.72 (IgG) (antibody, V domains shown)
VH: QVQLVQSGAEVKKPGASVKVSCKASGYTVTDYSMNWVRQAPGQGLEWMGWINTETGEPRYTDDFKGRVTMTRDTSISTAYMELSRLRSDDTAVYYCAREGDYDVFDYWGQGTLVTVSS
VL: DIVMTQSPDSLAVSLGERATINCRASKSVSTSSYSYMHWYQQKPGQPPKLLIYYVSYLESGVPDRFSGSGSGTDFTLTISSLQAEDVAVYYCQHSREFPYTFGQGTKLEIK
notes: Produced and purified as IgG; also called Mask humanization variant H7L5
Question: With B6 as the binder, how does the “Rel. active concentration [%]” value [3] read?
Answer: 98%

Question: And the “Rel. active concentration [%]” value [4]?
Answer: 80%
